We go through 13 molecules from patent publication US20210230266A1 (SINGAPORE HEALTH SERVICES PTE, published 2021).

Numbering of substitutions follows the chain as printed.

To fix the notation:
B1: YU100-A11 (antibody)
chain: EVQLQQSGGGVVQPGRSLRLSCAASGFTFSSYGMHWVRQAPGKGLEWVAVISYDGSNKYYADSVKGRFTISRDNSKNTLYLQMNSLRAEDTAVYYCAKIGATDPLDYWGQGTLVTVSSGSASAPKLEEGEFSEARVQSALTQPRSVSGSPGQSVTISCTGTSSDVGGYNYVSWYQQHPGKAPKLMIYDVSKRPSGVPDRFSGSKSGNTASLTISGLQAEDEADYYCCSYAGSYTWVFGGGTKLTVL
B2: YU100-B07 (antibody)
chain: B1 chain with E1Q, Q5V, Q6E, I156M, S163R, Q176H, G215E
B3: YU100-B06 (antibody)
chain: B1 chain with E1Q, Q5V, Q6E, G66S, R144A, V154I, C227N
B4: YU100-A12 (antibody)
chain: B1 chain with E1Q, Q5V, Q6E, Q137L, S138P, A139V, N207D, C227S
B5: YU100-B01 (antibody)
chain: B1 chain with E1Q, Q5V, S162N, S163T, G167A, H177Y, M185I, T234S
B6: YU100-D05 (antibody)
chain: QVQLQQSGGGVVQPGRSLRLSCAASGFTFSSYGMHWVRQAPGKGLEWVAVISYDGSNKYYADSVKGRFTISRDNSKNTLYLQMNSLRAEDTAVYYCAKIGATDPLDYWGQGTLVTVSSGSASAPKLEEGEFSEARVQSALTQPASVSGSPGQLITISCTGTNSDVGGYNYVSWYQQHPGKAPKLMIYDVSNRPSGVSNRFSGSKSGNTASLTISGLQAEDEADYYCCSYAGSYTWVFGGGTKLTVLGQPKAAPSVTLFPPSS
B7: YU100-B08 (antibody)
chain: EVQLVQSGGGVVQPGRSLRLSCAASGFTFSSYGMHWVRQAPGKGLEWVAVISYDGSNKYYADSVKGRFTISRDNSKNTLYLQMNSLRAEDTAVYYCAKIGATDPLDYWGQGTLVTVSSGSASAPKLEEGEFSEARVQSALTQPASVSGSPGQSITISCTGTSSDVGGYNYVSWYQQHPGKVPRLLIYDVSNRPSGVSTRFSGSKSGNTASLTISGLQGEDEAEYYCSSFTSSTTWVFGGGTKLTVL
B8: YU100-D02 (antibody)
chain: QVRLVQSGGGVVQPGRSLRLSCAASGFTFSSYGMHWVRQAPGKGLEWVAVISYDGSNKYYADSVKGRFTISRDNSKNTLYLQMNSLRAEDTAVYYCAKIGATDPLDYWGQGTLVTVSSGSASAPKLEEGEFSEARVQSALTQPRSVSGSPGQSVTISCTGTSGDVGTYNYVSWYQQHPGKAPKLMIFDVSKRPSGVPDRFSGSKSGNTASLTISGLQAEDEADYYCNSYAGSYTWVFGGGTKLTVLGQPKAAPSVTLFPPSS
B9: YU100-D11 (antibody)
chain: B8 chain with R3Q, G163S, D164N, T167G, F187Y, D223N, N227A, S232N, T234N
B10: YU100-E05 (antibody)
chain: B8 chain with Q1E, R3Q, S138A, A139V, G163S, T167G, F187Y, N227C, T234S
B11: YU100-E04 (antibody)
chain: QVQLQQSGGGVVQPGRSLRLSCAASGFTFSSYGMHWVRQAPGKGLEWVAVISYDGSNKYYADSVKGRFTISRDNSKNTLYLQMNSLRAEDTAVYYCAKIGATDPLDYWGQGTLVTVSSGSASAPKLEEGEFSEARVQSALTQPRSVSGSPGQSVTISCTGTSSDVGGYNYVSWYQQHPGKTPKLMIYDVTKRPSGVPDHFSGSKSGNTASLTISGLQAEDEADYYCCSYAGSHIWVFGGGTKLTVLGQPKAAPSVTLFPPSS
B12: YU100-B03 (antibody)
chain: QVQLVQSGGGVVQPGRSLRLSCAASGFTFSSYGMHWVRQAPGKGLEWVAVISYDGSNKYYADSVKGRFTISRDNSKNTLYLQMNSLRAEDTAVYYCAKIGATDPLDYWGQGTLVTVSSGSASAPKLEEGEFSEARVQSVLTQPRSVSGSPGRSVTISCTGTSSDVGGYNYVSWYQQHPGKAPKLTLYDVVKRPSGVPDRYSGSKSGNTASLTISGLQAEDEADYYCCSYAGGYTWVFGGGTKVTVV
B13: YU100-E01 (antibody)
chain: QVQLQQSGGGVVQPGRSLRLSCAASGFTFSSYGMHWVRQAPGKGLEWVAVISYDGSNKYYADSVKGRFTISRDNSKNTLYLQMNSLRAEDTAVYYCAKIGATDPLDYWGQGTLVTVSSGSASAPKLEEGEFSEARVQSALTQPASVSGSPGQSITISCTGTSNDIGAYNYVSWYQQHPGKAPKLLIYDVNNRPSGVSDRFSGSKSGNTASLTISGLQAEDEADYYCCSYAGSYSWVFGGGTKLTVLGQPKANPTVTLFPPSS

One assay has as its target T1, Human IL-11 (human, UniProt P20809 22-199).
T1 sequence: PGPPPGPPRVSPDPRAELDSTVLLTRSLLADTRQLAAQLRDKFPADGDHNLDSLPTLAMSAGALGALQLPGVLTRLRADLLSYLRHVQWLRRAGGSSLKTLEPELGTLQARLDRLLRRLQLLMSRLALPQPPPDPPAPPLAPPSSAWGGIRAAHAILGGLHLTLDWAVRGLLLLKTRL
The experiment in a line: cell-based or functional assay.
B1: the “MMP2 production, Experiment 1 (human atrial fibroblasts + TGFB1)” value was 51.6 ng/mL and the “MMP2 production, Experiment 2 (human atrial fibroblasts + TGFB1)” value was found to be 45.7 ng/mL.

As to B2, the “MMP2 production, Experiment 1 (human atrial fibroblasts + TGFB1)” value worked out at 55.9 ng/mL and the “MMP2 production, Experiment 2 (human atrial fibroblasts + TGFB1)” value came to 47.4 ng/mL.

On to B3, for which the “MMP2 production, Experiment 1 (human atrial fibroblasts + TGFB1)” value is 47.6 ng/mL and the “MMP2 production, Experiment 2 (human atrial fibroblasts + TGFB1)” value worked out at 49.6 ng/mL.

As to B4, the “MMP2 production, Experiment 1 (human atrial fibroblasts + TGFB1)” value was 59.5 ng/mL and the “MMP2 production, Experiment 2 (human atrial fibroblasts + TGFB1)” value amounted to 50.4 ng/mL.

As for B5, the “MMP2 production, Experiment 1 (human atrial fibroblasts + TGFB1)” value worked out at 52.5 ng/mL and the “MMP2 production, Experiment 2 (human atrial fibroblasts + TGFB1)” value is 40 ng/mL.

Consider B6, for which the “MMP2 production, Experiment 1 (human atrial fibroblasts + TGFB1)” value was found to be 53.3 ng/mL and the “MMP2 production, Experiment 2 (human atrial fibroblasts + TGFB1)” value was 48.8 ng/mL.

As to B7, the “MMP2 production, Experiment 1 (human atrial fibroblasts + TGFB1)” value came out at 55.3 ng/mL and the “MMP2 production, Experiment 2 (human atrial fibroblasts + TGFB1)” value amounted to 40.6 ng/mL.

For the molecule B8, the “MMP2 production, Experiment 1 (human atrial fibroblasts + TGFB1)” value amounted to 49.6 ng/mL and the “MMP2 production, Experiment 2 (human atrial fibroblasts + TGFB1)” value is 42.2 ng/mL.

As for B9, the “MMP2 production, Experiment 1 (human atrial fibroblasts + TGFB1)” value was found to be 51.2 ng/mL and the “MMP2 production, Experiment 2 (human atrial fibroblasts + TGFB1)” value came out at 47.2 ng/mL.

Regarding B10, the “MMP2 production, Experiment 1 (human atrial fibroblasts + TGFB1)” value is 56.3 ng/mL and the “MMP2 production, Experiment 2 (human atrial fibroblasts + TGFB1)” value was determined as 50.2 ng/mL.

As for B11, the “MMP2 production, Experiment 1 (human atrial fibroblasts + TGFB1)” value was determined as 50 ng/mL and the “MMP2 production, Experiment 2 (human atrial fibroblasts + TGFB1)” value came to 43.5 ng/mL.

Take B12: the “MMP2 production, Experiment 1 (human atrial fibroblasts + TGFB1)” value was found to be 47.3 ng/mL and the “MMP2 production, Experiment 2 (human atrial fibroblasts + TGFB1)” value was 46.8 ng/mL.

Consider B13, for which the “MMP2 production, Experiment 1 (human atrial fibroblasts + TGFB1)” value was found to be 59.3 ng/mL and the “MMP2 production, Experiment 2 (human atrial fibroblasts + TGFB1)” value amounted to 51.8 ng/mL.

For a further assay, the target named is T1, Human IL-11. The experiment in a line: ELISA. How it is done:
(§1) The soluble scFv were produced by recombinant expression in E. coli, and analysed for their ability to bind to human IL-11 and murine IL-11 by ELISA. Briefly, the respective antigen was coated to wells of an ELISA plate, the cell culture supernatant containing the respective scFv was added at a 1:2 dilution, and binding was detected.
(In general: ELISA stands for enzyme-linked immunosorbent assay.)
Turning to B1, the “hIL11 - average signal” value was determined as 0.333.

As to B2, the “hIL11 - average signal” value is 0.167.

With B3, the “hIL11 - average signal” value worked out at 0.209.

In the case of B4, the “hIL11 - average signal” value worked out at 0.32.

As to B5, the “hIL11 - average signal” value was found to be 0.187.

Consider B6, for which the “hIL11 - average signal” value came to 0.223.

Consider B7, for which the “hIL11 - average signal” value was determined as 0.209.

As for B8, the “hIL11 - average signal” value was 0.268.

Turning to B9, the “hIL11 - average signal” value was found to be 0.447.

As to B10, the “hIL11 - average signal” value was determined as 0.16.

On to B11, for which the “hIL11 - average signal” value turned out to be 0.36.

As for B12, the “hIL11 - average signal” value was 0.227.

Turning to B13, the “hIL11 - average signal” value worked out at 0.207.

The next assay concerns the target T2, Mouse IL-11 (mouse, UniProt P47873 22-199, limits assumed).
T2 construct: also called murine IL-11; recombinant murine IL-11
T2 sequence (looked up): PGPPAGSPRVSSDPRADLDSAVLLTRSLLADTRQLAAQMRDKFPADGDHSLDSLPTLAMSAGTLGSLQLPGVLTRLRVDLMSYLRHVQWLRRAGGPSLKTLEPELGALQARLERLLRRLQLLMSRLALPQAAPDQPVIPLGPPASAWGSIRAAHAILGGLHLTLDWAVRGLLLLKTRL
The experiment in a line: ELISA. The procedure: as §1
Regarding B1, the “mIL11 - average signal” value was determined as 0.372.

Regarding B2, the “mIL11 - average signal” value stood at 0.354.

As to B3, the “mIL11 - average signal” value worked out at 0.404.

Take B4: the “mIL11 - average signal” value turned out to be 0.388.

Regarding B5, the “mIL11 - average signal” value was determined as 0.175.

Turning to B6, the “mIL11 - average signal” value stood at 0.284.

With B7, the “mIL11 - average signal” value is 0.423.

As to B8, the “mIL11 - average signal” value is 0.346.

For B9, the “mIL11 - average signal” value turned out to be 0.475.

For B10, the “mIL11 - average signal” value was found to be 0.275.

As to B11, the “mIL11 - average signal” value worked out at 0.472.

On to B12, for which the “mIL11 - average signal” value was found to be 0.321.

For the molecule B13, the “mIL11 - average signal” value is 0.238.

The next assay deals with T1, Human IL-11. The experiment in a line: ELISA on coated recombinant human IL-11 (100 ng/well), scFv-Fc. The procedure:
The light chain shuffled anti-IL-11 antibodies were analysed to determine the EC50 for binding to human IL-11 by ELISA according to standard methods. Briefly, wells of microtiter plates were coated with recombinant human IL-11 (100 ng/well), scFv-Fc comprising the VH and VL domains of the clones were added in a dilution series and antibody binding was detected using a polyclonal antibody detection system.
Broadly, the EC50 is the concentration needed to bring the measured effect to its halfway point. With B1, the concentration giving a half-maximal response (EC50) was found to be 0.02 µg/mL.

Consider B2, for which the EC50 was 0.023 µg/mL.

Regarding B3, the EC50 was 0.033 µg/mL.

On to B4, for which the EC50 stood at 0.023 µg/mL.

In the case of B5, the EC50 amounted to 0.023 µg/mL.

For the molecule B6, the EC50 came out at 0.042 µg/mL.

For B7, the EC50 is 0.021 µg/mL.

In the case of B8, the EC50 came to 0.022 µg/mL.

Turning to B9, the EC50 was 0.038 µg/mL.

In the case of B10, the concentration for a half-maximal effect (EC50) amounted to 0.027 µg/mL.

Regarding B11, the half-maximal effective concentration (EC50) was determined as 0.036 µg/mL.

For the molecule B12, the EC50 was found to be 0.025 µg/mL.

Consider B13, for which the EC50 was determined as 0.03 µg/mL.
